Data taken from the supplement of paper PMC7877785.
± gives the uncertainty stated by the source.

Experiment: self-splicing fitness, log relative to wild type (ln ratio); higher = more splicing; Tetrahymena group I intron in knt gene, E. coli kanamycin selection, DiMSum; sequences stand for … in CUCUCU…GGAGGGAAAAGUUAUCAGGCAUGCACCUGGUAGCUAGUCUUUAAACCAAUAGAUUGCAUCGGUUUAAAAGGCAAGACCGUCAAAUUGCGGGAAAGGGGUCAACAGCCGUUCAGUACCAAGUCUCAGGGGAAACUUUGAGAUGGCCUUGCAAAGGGUAUGGUAAUAAGCUGACGGACAUGGUCCUAACCACGCAGCCAAGUCCUAAGUCAACAGAUCUUCUGUUGAUAUGGAUGCAGUUCACAGACUAAAUGUCGGUCGGGGAAGAUGUAUUCUUCUCAUAAGAUAUAGUCGGACCUCUCCUUAAUGGGAGCUAGCGGAUGAAGUGAUGCAACACUGGAGCCGCUGGGAACUAAUUUGUAUGCGAAAGUAUAUUGAUUAGUUUUGGAGUACUCGUGGUCG
Summary of the method: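 Six replicate transformations of E. coli BL21(DE3) with a pET-22b(+) library were grown overnight at 37°C or 30°C. The library randomised all eight P1ex-region intron nucleotides, the intron lying in the knt kanamycin-resistance gene, and plates were LB agar with or without 25 μg/mL kanamycin plus 100 μg/mL carbenicillin, 50 μM IPTG and 0.2% rhamnose. Pooled colonies were amplicon-sequenced on an Illumina HiSeq 2500, and fitness is the DiMSum error-weighted combination of wild-type-normalised replicate fold changes, kanamycin versus none.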

Row | Sequence | self-splicing fitness (ln) (30 °C) | self-splicing fitness (ln) (37 °C)
1 | ACCCAGCAAUAUUACGGGAA | -0.235 ± 0.044 | -0.102 ± 0.055
2 | ACCCAGCAAUAUUACGGGCA | 0.0145 ± 0.067 | -0.0091 ± 0.077
3 | ACCCAGCAAUAUUACGGGCC | -3.49 ± 0.18 | -1.45 ± 0.14
4 | ACCCAGCAAUAUUACGGUCA | -1.55 ± 0.067 | -0.429 ± 0.069
5 | ACCCAGCAAUAUUACGGUGA | -0.516 ± 0.043 | 0.305 ± 0.059
6 | ACCCAGCAAUAUUACGUACA | -1.85 ± 0.087 | -0.804 ± 0.085
7 | ACCCAGCAAUAUUACGUACC | -1.85 ± 0.12 | -1.63 ± 0.15
8 | ACCCAGCAAUAUUACGUCAU | -1.84 ± 0.049 | -0.414 ± 0.059
9 | ACCCAGCAAUAUUACGUGGU | -3.89 ± 0.11 | -2.76 ± 0.14
10 | ACCCAGCAAUAUUACGUUGC | -2.99 ± 0.089 | -0.989 ± 0.076
11 | ACCCAGCAAUAUUACGUUUC | -2.36 ± 0.062 | -1.35 ± 0.082
12 | ACCGAGCAAUAUUACGACUA | -2.66 ± 0.19 | -1.7 ± 0.17
13 | ACCGAGCAAUAUUACGAGAC | -3.81 ± 0.25 | -2.84 ± 0.4
14 | ACCGAGCAAUAUUACGAGAU | -2.96 ± 0.12 | -2.48 ± 0.18
15 | ACCGAGCAAUAUUACGAUGU | -2.71 ± 0.12 | -1.86 ± 0.12
16 | ACCGAGCAAUAUUACGAUUC | -3.37 ± 0.25 | -3.31 ± 0.31
17 | ACCGAGCAAUAUUACGCCGA | -2.48 ± 0.47 | -2.74 ± 0.38
18 | ACCGAGCAAUAUUACGCCGC | -2.66 ± 0.32 | -2.1 ± 0.29
19 | ACCGAGCAAUAUUACGCCUA | – | -1.93 ± 0.28
20 | ACCGAGCAAUAUUACGCGGU | -3.02 ± 0.18 | -1.7 ± 0.2
21 | ACCGAGCAAUAUUACGGAGC | -3.33 ± 0.18 | -1.73 ± 0.13
22 | ACCGAGCAAUAUUACGGCGU | -0.733 ± 0.082 | -0.172 ± 0.11
23 | ACCGAGCAAUAUUACGGGAA | -2.52 ± 0.21 | -2.56 ± 0.22
24 | ACCGAGCAAUAUUACGGGAG | -3.54 ± 0.2 | -2.69 ± 0.3
